Laboratory results: patent publication US20220220199A1

Molecular target: LAG-3 expressed at the surface of Jurkat LAG-3+/NFAT-luc2 effector cells (Promega) (UniProt P18627)
Experiment: cell-based or functional assay

Sequence of LAG-3 expressed at the surface of Jurkat LAG-3+/NFAT-luc2 effector cells (Promega) (P18627 23-525 limits assumed): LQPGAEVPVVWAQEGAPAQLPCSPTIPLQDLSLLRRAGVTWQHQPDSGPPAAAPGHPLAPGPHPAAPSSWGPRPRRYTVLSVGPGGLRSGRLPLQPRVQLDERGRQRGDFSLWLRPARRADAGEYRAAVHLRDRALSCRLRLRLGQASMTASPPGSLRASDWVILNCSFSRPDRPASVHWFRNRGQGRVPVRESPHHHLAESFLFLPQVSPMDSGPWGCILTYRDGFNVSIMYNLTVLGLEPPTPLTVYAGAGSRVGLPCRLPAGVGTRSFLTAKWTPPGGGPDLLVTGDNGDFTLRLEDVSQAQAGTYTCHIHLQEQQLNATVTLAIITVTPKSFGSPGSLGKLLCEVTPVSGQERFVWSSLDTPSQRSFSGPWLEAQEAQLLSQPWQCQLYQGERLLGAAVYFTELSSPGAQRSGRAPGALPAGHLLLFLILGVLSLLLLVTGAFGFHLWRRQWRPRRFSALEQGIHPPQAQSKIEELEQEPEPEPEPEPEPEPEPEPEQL

inhibition of luciferase expression (RLU) under an NFAT response element in Jurkat LAG-3+/NFAT-luc2 effector cells stimulated with anti-CD3 (OKT3, 3 ng/ml): 37 ng/mL
Substance: IMP761 (humanized 13E2-human IgG4 Fc antibody)
